# Earlier results in PMC11638072.
# Biological target: Trigger factor (Escherichia coli) (UniProt P0A850)
# Sequence of Trigger factor (P0A850 whole entry): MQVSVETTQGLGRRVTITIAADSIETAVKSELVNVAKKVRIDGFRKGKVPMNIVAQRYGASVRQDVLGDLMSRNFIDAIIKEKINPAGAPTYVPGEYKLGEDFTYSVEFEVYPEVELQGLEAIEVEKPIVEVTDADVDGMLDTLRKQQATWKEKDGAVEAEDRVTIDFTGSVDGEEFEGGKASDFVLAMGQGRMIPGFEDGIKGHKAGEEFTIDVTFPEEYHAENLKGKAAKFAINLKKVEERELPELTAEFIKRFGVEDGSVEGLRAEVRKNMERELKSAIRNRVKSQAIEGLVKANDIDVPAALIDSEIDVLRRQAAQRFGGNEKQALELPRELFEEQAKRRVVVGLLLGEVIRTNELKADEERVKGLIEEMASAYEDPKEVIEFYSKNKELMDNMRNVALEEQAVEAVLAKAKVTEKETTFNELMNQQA
substance,measurement,value
Trigger factor (from UniProt P0A850),Kd,1000 nM
